Test results: patent US20240262922A1 (Merck KGaA, published 2024)

Assays:
[1] = target: T1, recombinant human OX40L protein (R&D Systems, cat. #1054-OX) (human, UniProt P23510 51-183); experiment: SPR steady state, Biacore T200; OX40L immobilised on CM5, antibody in solution
T1 construct: Bought soluble recombinant protein; also called rhOX40L; recombinant soluble OX40L
T1 sequence: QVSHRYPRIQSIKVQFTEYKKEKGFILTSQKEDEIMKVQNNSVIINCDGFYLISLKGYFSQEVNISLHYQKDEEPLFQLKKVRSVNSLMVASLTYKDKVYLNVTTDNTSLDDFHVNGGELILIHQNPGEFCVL
Method: Recombinant OX40L proteins (human OX40L protein, R&D systems, cat. #1054-OX; cynomolgus monkey OX40L, Novoprotein cat. #CP72) were immobilized onto Biacore CM5 sensor chips and anti-OX40L antibodies were bound to this surface at a range of concentrations. The response at steady state was measured with a Biacore T200 instrument (GE Healthcare) and plotted against the concentration of antibody and fit to a 1:1 binding model. The steady state KD was determined as the antibody concentration at a response equal to half the maximal response (Rₘₐₓ).
As with the IgG clones, binding affinity to human OX40L was determined for all twelve FcFabs using steady state affinity assay as described in section 1.1.7 of Example 1. […]

AVI-GST-His6-hOX40L = target: T2, AVI-GST-His6-hOX40L (human, UniProt P23510 51-183); experiment: cell-based or functional assay
T2 sequence: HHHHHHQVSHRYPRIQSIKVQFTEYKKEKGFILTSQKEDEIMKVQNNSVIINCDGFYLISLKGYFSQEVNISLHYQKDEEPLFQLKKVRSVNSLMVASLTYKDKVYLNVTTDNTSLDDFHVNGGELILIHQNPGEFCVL

[2] = target: T1, recombinant human OX40L protein (R&D …); experiment: cell-based or functional assay

B1: 84E11 (FcFab) (antibody)
heavy: EPKSSDKTHTCPPCPAPPVAGPSVFLFPPKPKDTLMISRTPEVTCVVVDVSHEDPEVKFNWYVDGVEVHNAKTKPREEQYNSTYRVVSVLTVLHQDWLNGKEYKCAVSNKALPSSIEKTISKAKGQPREPQVYTLPPSREEMTKNQVSLTCLVKGFYPSDIAVEWESNGQPENNYKTTPPVLDSDGSFFLYSKLTVDKSRWQQGNVFSCSVMHEALHNHYTQKSLSLSPGAGGGGSGGGGSGGGGSQLQLQESGPGLVKPSETLSLTCTVSGGSISSGSFYWGWIRQPPGKGLEWIGTIYYSGSTYYNPSLKSRVAISVDTSKNQFYLNLNFVTAADTAVYHCARERSSSWYPFDYWGQGTLVTVSSASTKGPSVFPLAPSSKSTSGGTAALGCLVKDYFPEPVTVSWNSGALTSGVHTFPAVLQSSGLYSLSSVVTVPSSSLGTQTYICNVNHKPSNTKVDKRVEPKSC
light: SSELTQDPAVSVALGQTVRITCQGDSLRNYFANWYQQKPGQAPVLVIYGKNNRPSGIPDRFSGSSSGNTASLTITGAQAEDEADYYCNSRDSSGYHVVFGGGTKLTVLGQPKAAPSVTLFPPSSEELQANKATLVCLISDFYPGAVTVAWKADSSPVKAGVETTTPSKQSNNKYAASSYLSLTPEQWKSHKSYSCQVTHEGSTVEKTVAPTECS
For B1, the binding result [1] was “no binding”, the “OX40L neutralization/OX40-HEK Reporter IC50” value (AVI-GST-His6-hOX40L) was 57.2 nM and the “Primary T cell activation assay IC50” value [2] was 15.2 nM.
